Where only a bound is given, the exact number is not on record here.

As a reminder, the Kd is the concentration at which binding is half-saturated. Higher therefore signals lower affinity.

Test [1] concerns the target T1, human C5a (human, UniProt P01031 678-751).
T1 sequence: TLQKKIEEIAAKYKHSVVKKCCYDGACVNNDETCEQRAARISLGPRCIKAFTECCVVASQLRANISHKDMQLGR
Kind of test: cell-based or functional assay.

Test [2] addresses T1, human C5a. Description: cell-based or functional assay. This is another data set of the same source.
The target in test [3] is T1, human C5a. Kind of test: method not stated (Table 3, column Affinity).

B1: INab308 (antibody, V domains shown)
VH: QVQLQQSGPQLVRPGTSVKISCKASGYSFTTFWMDWVKQRPGQGLEWIGRIDPSDSESRLDQRFKDRATLTVDKSSSTVYMQLSSPTSEDSAVYYCARGNDGYYGFAYWGQGTLVTVSS
VL: DIVLTQSPASLAVSLGQRATISCKASQSVDYDGDSYMKWYQQKPGQPPKLLIYAASNLQSGIPARFSGSGSGTDFTLNIHPVEEEDAATYYCQQSNEDPYTFGGGTKLEIK
notes: Mouse monoclonal antibody from a hybridoma (BALB/c mice immunized with recombinant human C5a), purified from ascites on protein A; said to be bivalent
In the case of B1, the “blocking activity to C5a bioactivity (C5a-induced lysozyme release assay), molar ratio of antibody to C5a 1:2” value with human C5a [1] worked out at 94%. The “Blocking activity (inhibition of C5a-induced lysozyme release from human whole blood cells) at a ratio of Ab to C5a of ½:1” value with human C5a [2] was at least 90%. The Kd in the test with human C5a [3] stood at 0.5 nM.

B2: INab708 (antibody, V domains shown)
VH: VQLLESGAELMKPGASVKISCKATGNTFSGYWIEWVKQRPGHGLEWIGEILPGSGSTNYNEKFKGKATLTADTSSNTAYMQLSSLTSEDSAVYYCTRRGLYDGSSYFAYWGQGTLVTVSA
VL: DIVLTQSPASLAVSLGQRATISCKASQSVDYDGDSYMNWYQQKPGQPPKLLIYAASNLGSGIPARFSGSGSGTDFTLNIHPVEEEVAATYYCQQNNEDPLTFGAGTLLELK
notes: as for B1
As to B2, the “blocking activity to C5a bioactivity (C5a-induced lysozyme release assay), molar ratio of antibody to C5a 1:2” value with human C5a [1] worked out at 100%. In addition, the “Blocking activity (inhibition of C5a-induced lysozyme release from human whole blood cells) at a ratio of Ab to C5a of ½:1” value in the test with human C5a [2] was at least 90%. In the test with human C5a [3], this molecule showed a Kd of 0.51 nM.
